Results: patent US20150064134A1

Columns and labels:
Assay in all cases: cell-based or functional assay
Haspin(h) (human) = biological target: T1, Haspin(h) (human) (UniProt Q8TF76)
T1 sequence (looked up): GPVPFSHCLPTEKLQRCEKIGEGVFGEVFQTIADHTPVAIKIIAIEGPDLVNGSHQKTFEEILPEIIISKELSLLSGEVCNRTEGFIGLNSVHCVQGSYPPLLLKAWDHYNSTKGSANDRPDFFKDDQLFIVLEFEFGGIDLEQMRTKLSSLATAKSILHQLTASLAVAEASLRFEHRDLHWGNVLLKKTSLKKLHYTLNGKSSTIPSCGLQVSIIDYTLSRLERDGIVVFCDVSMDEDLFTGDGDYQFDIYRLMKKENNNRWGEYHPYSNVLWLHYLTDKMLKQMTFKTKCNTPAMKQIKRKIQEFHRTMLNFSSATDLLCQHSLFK

Ret(V804L)(h) (human) = biological target: T2, Ret(V804L)(h) (human) (UniProt P07949)
T2 sequence (looked up): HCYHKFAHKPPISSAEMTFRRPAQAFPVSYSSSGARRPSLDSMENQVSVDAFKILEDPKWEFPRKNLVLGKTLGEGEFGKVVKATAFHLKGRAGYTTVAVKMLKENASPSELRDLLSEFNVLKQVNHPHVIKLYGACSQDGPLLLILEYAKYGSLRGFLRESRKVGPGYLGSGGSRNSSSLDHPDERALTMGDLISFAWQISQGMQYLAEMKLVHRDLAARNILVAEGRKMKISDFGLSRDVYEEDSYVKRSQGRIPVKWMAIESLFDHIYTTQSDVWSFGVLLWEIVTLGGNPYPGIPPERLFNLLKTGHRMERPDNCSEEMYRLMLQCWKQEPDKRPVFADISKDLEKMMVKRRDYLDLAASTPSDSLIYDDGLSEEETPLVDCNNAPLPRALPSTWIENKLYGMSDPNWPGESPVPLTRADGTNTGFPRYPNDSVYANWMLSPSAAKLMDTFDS

CDK3/cyclinE(h) (human) = CDK3/cyclinE(h) (human) (UniProt Q00526)
MSK2(h) (human) = MSK2(h) (human) (UniProt O75676)
Src(1-530)(h) (human) = Src(1-530)(h) (human) (UniProt P12931)
Hck(h) (human) = Hck(h) (human) (UniProt P08631)
mTOR/FKBP12(h) (human) = mTOR/FKBP12(h) (human) (UniProt P42345)
Chain of mTOR/FKBP12(h) (human) (P42345 1362-2549 limits assumed, chain 1 of 2): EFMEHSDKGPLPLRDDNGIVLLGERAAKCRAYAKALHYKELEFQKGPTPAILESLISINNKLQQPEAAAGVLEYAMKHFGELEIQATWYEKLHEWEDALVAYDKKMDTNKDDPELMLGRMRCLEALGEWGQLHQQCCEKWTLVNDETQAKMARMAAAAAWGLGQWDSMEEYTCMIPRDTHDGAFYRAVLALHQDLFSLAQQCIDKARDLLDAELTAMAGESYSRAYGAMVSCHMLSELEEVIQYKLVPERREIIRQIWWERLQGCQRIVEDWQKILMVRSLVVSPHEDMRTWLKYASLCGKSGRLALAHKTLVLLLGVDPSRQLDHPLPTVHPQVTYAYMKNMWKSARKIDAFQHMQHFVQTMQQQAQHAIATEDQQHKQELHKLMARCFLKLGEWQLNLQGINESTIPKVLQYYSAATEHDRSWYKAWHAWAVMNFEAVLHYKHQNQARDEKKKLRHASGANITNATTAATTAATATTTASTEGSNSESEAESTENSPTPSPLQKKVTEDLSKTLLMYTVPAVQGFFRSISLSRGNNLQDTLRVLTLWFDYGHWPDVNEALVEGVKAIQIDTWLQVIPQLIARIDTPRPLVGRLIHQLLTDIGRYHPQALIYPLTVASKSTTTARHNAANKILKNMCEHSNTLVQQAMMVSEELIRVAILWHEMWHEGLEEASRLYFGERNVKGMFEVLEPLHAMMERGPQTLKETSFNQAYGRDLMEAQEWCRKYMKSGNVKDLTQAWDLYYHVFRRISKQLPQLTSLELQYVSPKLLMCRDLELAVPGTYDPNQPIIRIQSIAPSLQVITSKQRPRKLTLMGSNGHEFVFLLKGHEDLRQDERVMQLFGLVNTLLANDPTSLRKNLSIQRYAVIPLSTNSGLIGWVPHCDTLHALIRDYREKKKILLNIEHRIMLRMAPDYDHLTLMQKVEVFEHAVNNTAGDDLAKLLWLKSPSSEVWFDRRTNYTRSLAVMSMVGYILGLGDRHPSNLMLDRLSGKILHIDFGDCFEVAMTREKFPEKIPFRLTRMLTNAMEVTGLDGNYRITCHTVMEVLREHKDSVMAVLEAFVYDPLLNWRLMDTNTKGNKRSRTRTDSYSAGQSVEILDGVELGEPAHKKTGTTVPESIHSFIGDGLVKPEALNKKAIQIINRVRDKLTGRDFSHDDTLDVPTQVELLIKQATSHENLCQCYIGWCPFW
Chain of mTOR/FKBP12(h) (human) (P62942 whole entry, chain 2 of 2, further chain): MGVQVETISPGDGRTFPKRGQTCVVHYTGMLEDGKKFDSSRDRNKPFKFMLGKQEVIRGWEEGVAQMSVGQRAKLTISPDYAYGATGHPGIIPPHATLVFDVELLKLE

EphB2(h) (human) = EphB2(h) (human) (UniProt P29323)
Chain of EphB2(h) (human) (P29323 565-986 limits assumed): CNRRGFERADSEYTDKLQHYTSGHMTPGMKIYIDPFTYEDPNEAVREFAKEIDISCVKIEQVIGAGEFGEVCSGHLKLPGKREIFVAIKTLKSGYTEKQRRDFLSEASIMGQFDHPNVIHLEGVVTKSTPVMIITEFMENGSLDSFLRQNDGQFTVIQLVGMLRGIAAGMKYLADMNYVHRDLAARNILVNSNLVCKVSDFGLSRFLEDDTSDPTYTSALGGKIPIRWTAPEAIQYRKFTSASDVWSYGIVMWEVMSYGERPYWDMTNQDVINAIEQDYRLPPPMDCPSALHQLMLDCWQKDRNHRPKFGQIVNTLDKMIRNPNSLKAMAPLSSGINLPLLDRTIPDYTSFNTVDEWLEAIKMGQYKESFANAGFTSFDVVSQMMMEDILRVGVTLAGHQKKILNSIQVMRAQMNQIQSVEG

PAK2(h) (human) = PAK2(h) (human) (UniProt Q13177)
Chain of PAK2(h) (human) (Q13177 whole entry): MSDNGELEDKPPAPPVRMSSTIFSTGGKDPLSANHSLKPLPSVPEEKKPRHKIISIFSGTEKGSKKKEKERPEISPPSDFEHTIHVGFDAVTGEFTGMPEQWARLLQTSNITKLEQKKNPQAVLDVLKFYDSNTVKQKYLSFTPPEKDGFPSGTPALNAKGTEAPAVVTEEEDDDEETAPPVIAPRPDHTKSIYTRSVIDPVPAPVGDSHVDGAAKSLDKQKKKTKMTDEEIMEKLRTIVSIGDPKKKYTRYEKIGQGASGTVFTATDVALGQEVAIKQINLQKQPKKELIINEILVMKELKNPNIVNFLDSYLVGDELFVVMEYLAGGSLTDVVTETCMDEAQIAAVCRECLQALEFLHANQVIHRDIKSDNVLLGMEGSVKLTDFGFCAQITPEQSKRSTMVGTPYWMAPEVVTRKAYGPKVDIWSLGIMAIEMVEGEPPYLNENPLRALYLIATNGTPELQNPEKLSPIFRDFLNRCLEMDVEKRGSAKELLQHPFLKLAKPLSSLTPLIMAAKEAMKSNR

TAO3(h) (human) = biological target: T3, TAO3(h) (human) (UniProt Q9H2K8)
T3 sequence (looked up): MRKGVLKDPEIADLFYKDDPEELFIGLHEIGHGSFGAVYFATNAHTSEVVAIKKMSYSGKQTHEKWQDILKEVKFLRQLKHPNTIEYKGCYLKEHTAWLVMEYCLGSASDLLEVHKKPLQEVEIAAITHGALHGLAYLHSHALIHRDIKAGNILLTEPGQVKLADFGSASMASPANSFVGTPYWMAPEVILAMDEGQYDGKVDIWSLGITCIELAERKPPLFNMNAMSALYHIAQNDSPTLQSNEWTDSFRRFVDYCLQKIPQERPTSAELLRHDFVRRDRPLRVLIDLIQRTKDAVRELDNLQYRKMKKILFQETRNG

FGFR1(h) (human) = FGFR1(h) (human) (UniProt P11362)
Chain of FGFR1(h) (human) (P11362 456-765 limits assumed): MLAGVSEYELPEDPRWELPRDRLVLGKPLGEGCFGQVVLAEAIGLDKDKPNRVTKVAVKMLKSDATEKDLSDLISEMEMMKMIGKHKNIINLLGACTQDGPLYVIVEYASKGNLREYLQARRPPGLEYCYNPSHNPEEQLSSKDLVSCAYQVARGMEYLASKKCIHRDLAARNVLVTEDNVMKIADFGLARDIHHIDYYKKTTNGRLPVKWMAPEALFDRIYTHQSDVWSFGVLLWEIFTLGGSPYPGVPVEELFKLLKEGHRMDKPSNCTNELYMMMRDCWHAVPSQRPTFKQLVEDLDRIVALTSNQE

CDK1/cyclinB(h) (human) = CDK1/cyclinB(h) (human) (UniProt P06493)
Axl(h) (human) = biological target: T4, Axl(h) (human) (UniProt P30530)
T4 sequence (looked up): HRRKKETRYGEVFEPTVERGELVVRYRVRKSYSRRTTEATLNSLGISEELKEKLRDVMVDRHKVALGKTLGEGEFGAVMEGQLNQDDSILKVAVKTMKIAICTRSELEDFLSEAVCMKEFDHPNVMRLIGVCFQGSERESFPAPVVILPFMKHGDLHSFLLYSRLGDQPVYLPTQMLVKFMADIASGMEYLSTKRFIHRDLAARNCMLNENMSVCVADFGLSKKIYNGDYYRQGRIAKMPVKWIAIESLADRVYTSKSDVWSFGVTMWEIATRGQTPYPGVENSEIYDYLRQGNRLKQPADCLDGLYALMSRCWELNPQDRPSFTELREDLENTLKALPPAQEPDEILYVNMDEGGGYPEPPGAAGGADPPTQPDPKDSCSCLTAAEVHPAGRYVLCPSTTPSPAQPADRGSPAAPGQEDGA

EGFR(h) (human) = EGFR(h) (human) (UniProt P00533)
SAPK3(h) (human) = biological target: T5, SAPK3(h) (human) (UniProt P53778)
T5 sequence (looked up): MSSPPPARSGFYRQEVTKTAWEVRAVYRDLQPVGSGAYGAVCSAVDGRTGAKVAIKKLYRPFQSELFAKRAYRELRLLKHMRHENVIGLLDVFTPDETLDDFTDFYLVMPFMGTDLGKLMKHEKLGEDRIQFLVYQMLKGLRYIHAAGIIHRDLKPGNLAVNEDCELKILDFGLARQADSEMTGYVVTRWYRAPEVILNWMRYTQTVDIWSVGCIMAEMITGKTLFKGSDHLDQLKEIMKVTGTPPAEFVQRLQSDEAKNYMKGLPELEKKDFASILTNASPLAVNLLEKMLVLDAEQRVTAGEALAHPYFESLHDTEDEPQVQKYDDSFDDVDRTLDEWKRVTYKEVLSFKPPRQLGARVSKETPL

Row | % activity at 100 µM (Haspin(h) (human)) | % activity at 100 µM (Ret(V804L)(h) (human)) | % activity at 100 µM (CDK3/cyclinE(h) (human)) | % activity at 100 µM (MSK2(h) (human)) | % activity at 100 µM (Src(1-530)(h) (human)) | % activity at 100 µM (Hck(h) (human)) | % activity at 100 µM (mTOR/FKBP12(h) (human)) | % activity at 100 µM (EphB2(h) (human)) | % activity at 100 µM (PAK2(h) (human)) | % activity at 100 µM (TAO3(h) (human)) | % activity at 100 µM (FGFR1(h) (human)) | % activity at 100 µM (CDK1/cyclinB(h) (human)) | % activity at 100 µM (Axl(h) (human)) | % activity at 100 µM (EGFR(h) (human)) | % activity at 100 µM (SAPK3(h) (human)) | Substance
1 | 36% | 73% | 92% | 52% | 19% | 72% | 125% | 22% | 59% | 67% | 59% | 74% | 41% | 16% | 79% | MMI-0400 (peptide)
2 | 25% | 20% | 8% | 14% | 21% | 78% | 140% | 70% | 44% | 12% | 18% | 57% | 12% | -1% | 24% | MMI-0500 (peptide)
3 | 48% | 79% | 94% | 56% | 23% | 72% | 145% | 18% | 65% | 77% | 55% | 73% | 52% | 21% | 84% | MMI-0300 (peptide)
